Test results published in article PMC9736959, “Enzyme-Linked Aptamer Kits for Rapid, Visual, and Sensitive Determination of Lactoferrin in Dairy Products”.

Biological target: lactoferrin (Lf) (bovine (from bovine milk), UniProt P24627 20-708)
Test: competition (indirect competitive enzyme-linked aptamer assay against immobilized cDNA S2); linear 25-500 nM Lf, LOD 14.01 nM (not a Kd); aptamer as SA-HRP conjugate; PBS pH 7.2, about 25 °C; Lf and recognition probe 5 min, then 30 min on cDNA-coated plate; PBS-T (0.05% Tween-20) washes
Conditions: protein: commercial; label: biotin; coupled to SA-HRP in the recognition probe; capture strand S2 is not an exact complement (fewer G opposite the C run)

lactoferrin (Lf), sequence (P24627 20-708): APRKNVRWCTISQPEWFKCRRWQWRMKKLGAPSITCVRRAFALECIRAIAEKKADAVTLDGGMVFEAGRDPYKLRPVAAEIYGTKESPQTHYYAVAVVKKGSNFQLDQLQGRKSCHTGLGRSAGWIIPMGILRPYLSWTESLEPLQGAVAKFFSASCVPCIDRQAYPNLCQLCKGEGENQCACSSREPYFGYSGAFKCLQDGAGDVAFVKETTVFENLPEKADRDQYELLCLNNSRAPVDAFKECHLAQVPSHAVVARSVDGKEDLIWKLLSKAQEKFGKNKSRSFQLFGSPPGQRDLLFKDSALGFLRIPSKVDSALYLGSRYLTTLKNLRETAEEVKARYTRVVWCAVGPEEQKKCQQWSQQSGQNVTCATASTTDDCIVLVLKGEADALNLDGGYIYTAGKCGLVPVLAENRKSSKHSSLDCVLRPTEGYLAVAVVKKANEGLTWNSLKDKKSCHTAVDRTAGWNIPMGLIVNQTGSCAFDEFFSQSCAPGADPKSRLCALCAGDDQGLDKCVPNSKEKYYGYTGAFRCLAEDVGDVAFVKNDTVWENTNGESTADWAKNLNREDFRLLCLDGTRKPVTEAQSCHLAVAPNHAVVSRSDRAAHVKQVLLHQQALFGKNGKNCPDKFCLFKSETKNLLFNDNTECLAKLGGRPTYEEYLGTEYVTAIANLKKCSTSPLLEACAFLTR

Does TGGTGCTGCCCCCCTAGTCTCCGGCTGCTTCTTGG (ssDNA, 5' biotin (so in the source)) [Lf aptamer (biotin-Apt)] bind?
Result: binds
